Data reported in publication PMC10786891, “Massively parallel profiling of RNA-targeting CRISPR-Cas13d”.

T1: EsCas13d, nuclease-dead (Eubacterium siraeum, UniProt B0MS50, R295A;H300A;R849A;H854A)
T1 sequence: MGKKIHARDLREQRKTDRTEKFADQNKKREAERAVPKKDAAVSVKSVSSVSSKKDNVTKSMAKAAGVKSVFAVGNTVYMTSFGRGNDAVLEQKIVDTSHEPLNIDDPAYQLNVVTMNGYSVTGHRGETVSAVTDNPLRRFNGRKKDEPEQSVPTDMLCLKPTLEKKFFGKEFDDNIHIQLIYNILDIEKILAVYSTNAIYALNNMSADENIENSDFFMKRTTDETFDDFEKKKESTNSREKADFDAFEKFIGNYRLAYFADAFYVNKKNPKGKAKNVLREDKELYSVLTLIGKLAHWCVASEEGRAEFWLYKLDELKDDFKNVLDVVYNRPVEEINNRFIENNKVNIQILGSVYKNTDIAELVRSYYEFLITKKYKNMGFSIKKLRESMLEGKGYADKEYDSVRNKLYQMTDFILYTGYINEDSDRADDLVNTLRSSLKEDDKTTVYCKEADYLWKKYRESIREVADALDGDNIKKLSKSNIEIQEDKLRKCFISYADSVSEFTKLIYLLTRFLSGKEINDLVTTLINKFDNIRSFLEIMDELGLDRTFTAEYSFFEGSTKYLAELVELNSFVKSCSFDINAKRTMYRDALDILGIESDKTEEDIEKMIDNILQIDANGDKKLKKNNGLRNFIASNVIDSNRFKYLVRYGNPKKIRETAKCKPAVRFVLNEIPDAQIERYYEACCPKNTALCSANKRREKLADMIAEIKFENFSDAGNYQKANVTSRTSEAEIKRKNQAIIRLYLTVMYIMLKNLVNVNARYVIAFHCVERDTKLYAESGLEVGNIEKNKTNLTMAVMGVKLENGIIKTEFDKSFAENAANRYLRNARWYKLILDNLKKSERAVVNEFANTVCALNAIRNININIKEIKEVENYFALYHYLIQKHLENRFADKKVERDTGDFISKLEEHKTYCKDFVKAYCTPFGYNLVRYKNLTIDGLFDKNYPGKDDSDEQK


target: T1, EsCas13d, nuclease-dead; test: crRNA (strand 1, pre-loaded); Mg2+; 40 mM Tris-HCl pH 7.5, 150 mM NaCl, 6 mM MgCl2, 1 mM DTT, 0.1% Tween-20, 0.2 mg/ml BSA; 25 C; 10 min per concentration, then washed; details: tags: His6-TwinStrep-SUMO cleaved; N-terminal SNAP kept (SNAP-Surface 488); label: 3' end held by stalled T7 RNA polymerase

| Binder | Kd |
| --- | --- |
| target 1 C2G,G12U (mixed) RNA 1: CACCCGUGCAAAAAUGCAGGGGUCUAAAACUGAGCGGAUAACCUCUCUAUGG RNA 2: GGGAAUGGAUCCACAUCUACGAAUUCGUACCAUAGAGAGUUUAUCCGCUGACCGAGAUCGGAAGAGCACACGU | 7.14 ± 0.3 nM |
| target 1 insU 3' of 21,insU 3' of 5 (mixed) RNA 1: CACCCGUGCAAAAAUGCAGGGGUCUAAAACUGAGCGGAUAACCUCUCUAUGG RNA 2: GGGAAUGGAUCCACAUCUACGAAUUCGUACCUAUAGAGAGGUUAUCCGUCUCACCGAGAUCGGAAGAGCACACGU | 34 ± 7 nM |
| target 1 insU 3' of 15,insA 3' of 6 (mixed) RNA 1: CACCCGUGCAAAAAUGCAGGGGUCUAAAACUGAGCGGAUAACCUCUCUAUGG RNA 2: GGGAAUGGAUCCACAUCUACGAAUUCGUACCAUAGAGUAGGUUAUCCAGCUCACCGAGAUCGGAAGAGCACACGU | 21.4 ± 2 nM |
| target 1 insA 3' of 11,insA 3' of 7 (mixed) RNA 1: CACCCGUGCAAAAAUGCAGGGGUCUAAAACUGAGCGGAUAACCUCUCUAUGG RNA 2: GGGAAUGGAUCCACAUCUACGAAUUCGUACCAUAGAGAGGUAUAUCACGCUCACCGAGAUCGGAAGAGCACACGU | 14.3 ± 0.7 nM |
| target 1 insU 3' of 4,insA 3' of 2 (mixed) RNA 1: CACCCGUGCAAAAAUGCAGGGGUCUAAAACUGAGCGGAUAACCUCUCUAUGG RNA 2: GGGAAUGGAUCCACAUCUACGAAUUCGUACCAUAGAGAGGUUAUCCGCUUCAACCGAGAUCGGAAGAGCACACGU | 7.7 ± 0.6 nM |
| target 1 A9C,U10A (mixed) RNA 1: CACCCGUGCAAAAAUGCAGGGGUCUAAAACUGAGCGGAUAACCUCUCUAUGG RNA 2: GGGAAUGGAUCCACAUCUACGAAUUCGUACCAUAGAGAGGUACUCCGCUCACCGAGAUCGGAAGAGCACACGU | 13.9 ± 0.8 nM |
| target 1 insG 3' of 3,insU 3' of 2 (mixed) RNA 1: CACCCGUGCAAAAAUGCAGGGGUCUAAAACUGAGCGGAUAACCUCUCUAUGG RNA 2: GGGAAUGGAUCCACAUCUACGAAUUCGUACCAUAGAGAGGUUAUCCGCUGCUACCGAGAUCGGAAGAGCACACGU | 10.1 ± 0.4 nM |
| target 1 insA 3' of 19,insG 3' of 19 (mixed) RNA 1: CACCCGUGCAAAAAUGCAGGGGUCUAAAACUGAGCGGAUAACCUCUCUAUGG RNA 2: GGGAAUGGAUCCACAUCUACGAAUUCGUACCAUAGAGAGAGGUUAUCCGCUCACCGAGAUCGGAAGAGCACACGU | 8.62 ± 0.31 nM |
| target 1 insU 3' of 13,insG 3' of 6 (mixed) RNA 1: CACCCGUGCAAAAAUGCAGGGGUCUAAAACUGAGCGGAUAACCUCUCUAUGG RNA 2: GGGAAUGGAUCCACAUCUACGAAUUCGUACCAUAGAGAGUGUUAUCCGGCUCACCGAGAUCGGAAGAGCACACGU | 25 ± 5 nM |
| target 1 U10C,G15A (mixed) RNA 1: CACCCGUGCAAAAAUGCAGGGGUCUAAAACUGAGCGGAUAACCUCUCUAUGG RNA 2: GGGAAUGGAUCCACAUCUACGAAUUCGUACCAUAGAAAGGUCAUCCGCUCACCGAGAUCGGAAGAGCACACGU | 31.3 ± 1.3 nM |
| target 1 insC 3' of 15,insC 3' of 11 (mixed) RNA 1: CACCCGUGCAAAAAUGCAGGGGUCUAAAACUGAGCGGAUAACCUCUCUAUGG RNA 2: GGGAAUGGAUCCACAUCUACGAAUUCGUACCAUAGAGCAGGUCUAUCCGCUCACCGAGAUCGGAAGAGCACACGU | 36.9 ± 3.4 nM |
| target 1 U3C,C4A (mixed) RNA 1: CACCCGUGCAAAAAUGCAGGGGUCUAAAACUGAGCGGAUAACCUCUCUAUGG RNA 2: GGGAAUGGAUCCACAUCUACGAAUUCGUACCAUAGAGAGGUUAUCCGACCACCGAGAUCGGAAGAGCACACGU | 12.1 ± 1.2 nM |
| target 1 C4G,G5A (mixed) RNA 1: CACCCGUGCAAAAAUGCAGGGGUCUAAAACUGAGCGGAUAACCUCUCUAUGG RNA 2: GGGAAUGGAUCCACAUCUACGAAUUCGUACCAUAGAGAGGUUAUCCAGUCACCGAGAUCGGAAGAGCACACGU | 83 ± 17 nM |
| target 1 C2G,C21A (mixed) RNA 1: CACCCGUGCAAAAAUGCAGGGGUCUAAAACUGAGCGGAUAACCUCUCUAUGG RNA 2: GGGAAUGGAUCCACAUCUACGAAUUCGUACAAUAGAGAGGUUAUCCGCUGACCGAGAUCGGAAGAGCACACGU | 36 ± 8 nM |
| target 1 del8,del18 (mixed) RNA 1: CACCCGUGCAAAAAUGCAGGGGUCUAAAACUGAGCGGAUAACCUCUCUAUGG RNA 2: GGGAAUGGAUCCACAUCUACGAAUUCGUACCAUGAGAGGUUACCGCUCACCGAGAUCGGAAGAGCACACGU | 75 ± 10 nM |
| target 1 insU 3' of 12,insG 3' of 11 (mixed) RNA 1: CACCCGUGCAAAAAUGCAGGGGUCUAAAACUGAGCGGAUAACCUCUCUAUGG RNA 2: GGGAAUGGAUCCACAUCUACGAAUUCGUACCAUAGAGAGGUUGUAUCCGCUCACCGAGAUCGGAAGAGCACACGU | 10.8 ± 0.7 nM |
| target 1 insC 3' of 20,insC 3' of 8 (mixed) RNA 1: CACCCGUGCAAAAAUGCAGGGGUCUAAAACUGAGCGGAUAACCUCUCUAUGG RNA 2: GGGAAUGGAUCCACAUCUACGAAUUCGUACCACUAGAGAGGUUAUCCCGCUCACCGAGAUCGGAAGAGCACACGU | 15.2 ± 1.7 nM |
| target 1 insU 3' of 21,insA 3' of 5 (mixed) RNA 1: CACCCGUGCAAAAAUGCAGGGGUCUAAAACUGAGCGGAUAACCUCUCUAUGG RNA 2: GGGAAUGGAUCCACAUCUACGAAUUCGUACCUAUAGAGAGGUUAUCCGACUCACCGAGAUCGGAAGAGCACACGU | 28 ± 6 nM |
| target 1 insU 3' of 6,insA 3' of 6 (mixed) RNA 1: CACCCGUGCAAAAAUGCAGGGGUCUAAAACUGAGCGGAUAACCUCUCUAUGG RNA 2: GGGAAUGGAUCCACAUCUACGAAUUCGUACCAUAGAGAGGUUAUCCUAGCUCACCGAGAUCGGAAGAGCACACGU | 13.8 ± 1.3 nM |
| target 1 U10A,G12U (mixed) RNA 1: CACCCGUGCAAAAAUGCAGGGGUCUAAAACUGAGCGGAUAACCUCUCUAUGG RNA 2: GGGAAUGGAUCCACAUCUACGAAUUCGUACCAUAGAGAGUUAAUCCGCUCACCGAGAUCGGAAGAGCACACGU | 8.6 ± 0.8 nM |
| target 1 G5U,G15A (mixed) RNA 1: CACCCGUGCAAAAAUGCAGGGGUCUAAAACUGAGCGGAUAACCUCUCUAUGG RNA 2: GGGAAUGGAUCCACAUCUACGAAUUCGUACCAUAGAAAGGUUAUCCUCUCACCGAGAUCGGAAGAGCACACGU | 16.5 ± 1.3 nM |
| target 1 U10A,A20U (mixed) RNA 1: CACCCGUGCAAAAAUGCAGGGGUCUAAAACUGAGCGGAUAACCUCUCUAUGG RNA 2: GGGAAUGGAUCCACAUCUACGAAUUCGUACCUUAGAGAGGUAAUCCGCUCACCGAGAUCGGAAGAGCACACGU | 87 ± 13 nM |
| target 1 insU 3' of 4,insC 3' of 1 (mixed) RNA 1: CACCCGUGCAAAAAUGCAGGGGUCUAAAACUGAGCGGAUAACCUCUCUAUGG RNA 2: GGGAAUGGAUCCACAUCUACGAAUUCGUACCAUAGAGAGGUUAUCCGCUUCACCCGAGAUCGGAAGAGCACACGU | 16.8 ± 1.8 nM |
| target 1 insU 3' of 20,insA 3' of 12 (mixed) RNA 1: CACCCGUGCAAAAAUGCAGGGGUCUAAAACUGAGCGGAUAACCUCUCUAUGG RNA 2: GGGAAUGGAUCCACAUCUACGAAUUCGUACCAUUAGAGAGGAUUAUCCGCUCACCGAGAUCGGAAGAGCACACGU | 33.3 ± 2.5 nM |
| target 1 C2U,C7G (mixed) RNA 1: CACCCGUGCAAAAAUGCAGGGGUCUAAAACUGAGCGGAUAACCUCUCUAUGG RNA 2: GGGAAUGGAUCCACAUCUACGAAUUCGUACCAUAGAGAGGUUAUGCGCUUACCGAGAUCGGAAGAGCACACGU | 8.54 ± 0.22 nM |
| target 1 A9C,G12C (mixed) RNA 1: CACCCGUGCAAAAAUGCAGGGGUCUAAAACUGAGCGGAUAACCUCUCUAUGG RNA 2: GGGAAUGGAUCCACAUCUACGAAUUCGUACCAUAGAGAGCUUCUCCGCUCACCGAGAUCGGAAGAGCACACGU | 23.1 ± 2.1 nM |
| target 1 del15 (mixed) RNA 1: CACCCGUGCAAAAAUGCAGGGGUCUAAAACUGAGCGGAUAACCUCUCUAUGG RNA 2: GGGAAUGGAUCCACAUCUACGAAUUCGUACCAUAGAAGGUUAUCCGCUCACCGAGAUCGGAAGAGCACACGU | 8.96 ± 0.33 nM |
| target 1 A9U,G17C (mixed) RNA 1: CACCCGUGCAAAAAUGCAGGGGUCUAAAACUGAGCGGAUAACCUCUCUAUGG RNA 2: GGGAAUGGAUCCACAUCUACGAAUUCGUACCAUACAGAGGUUUUCCGCUCACCGAGAUCGGAAGAGCACACGU | ~90 nM |
